Assay [1] deals with T1, recombinant ribosomal protein L7/L12 of Pseudomonas aeruginosa, tag fusion protein (Pseudomonas aeruginosa, UniProt Q9HWC8 1-122).
T1 sequence: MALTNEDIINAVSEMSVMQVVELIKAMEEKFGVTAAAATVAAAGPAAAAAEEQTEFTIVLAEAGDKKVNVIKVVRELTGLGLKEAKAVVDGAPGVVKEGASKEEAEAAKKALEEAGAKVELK
Nature of the assay: ELISA, recombinant L7/L12 (10 ng/mL) coated. Background: In an ELISA, binding on a coated surface is turned into a signal by an enzyme label.
Text: (§1) The thus-produced Specific Antibodies A to C (antibodies of the present invention) and Generic Antibodies A and B were used to obtain data on the reactivity with ribosome protein L7/L12 of plural genera of Enterobacteriaceae bacteria by means of ELISA. Seven species of Enterobacteriaceae bacteria were selected for the study: Escherichia coli (EC), Klebsiella pneumoniae (KP), Citrobacter freundii (CF), Enterobacter cloacae (ECL), Proteus mirabilis (PM), Salmonella enterica (SE), and Serratia liquefaciens (SL), which are frequently detected in food, beverage, environmental, or biological samples. Four species of bacteria other than Enterobacteriaceae (non-Enterobacteriaceae bacteria) were also selected for the study: Pseudomonas aeruginosa (PA), Staphylococcus aureus (SA), Bacillus subtilis (BS), and Enterococcus faecalis (EF), which are frequently detected in food, beverage, environmental, or biological samples. E. coli transformed with expression vectors incorporating DNA encoding the amino acid sequence of ribosomal protein L7/L12 of each of the above seven Enterobacteriaceae and four non-Enterobacteriaceae species were cultured using, e.g., LB medium, and the ribosomal protein L7/L12 was purified as a fusion protein by affinity columns using tag sequences derived from the expression vector.
(§2) 50 μL of 10 ng/mL solution of the ribosomal protein L7/L12 of each bacterial species was dropped into each well of a 96-well polystyrene plate for ELISA and solidified on the bottom of the plate. After washing each well three times with PBS-T (PBS with Tween 20), blocking treatment was performed with PBS containing 1% BSA (Bovine Serum Albumin). After blocking, the wells were washed three times with PBS-T, and 50 µL of 10 μg/mL solution of each of the Specific Antibodies A to C and Generic Antibodies A and B was dropped into each well for 1 hour for antigen-antibody reactions. After the reactions, the samples were washed three times with PBS-T, and then 0.5 μg/mL of HRP (Horse Radish Peroxidase) labeled secondary antibody (Goat Anti-mouse IgG: Goat Anti-mouse IgG), which is the enzyme for detection, was added dropwise. After the reaction, the wells were washed five times with PBS-T, and 100 μL of a mixture of tetramethylbenzidine (TMB) and hydrogen peroxide, the chromogenic substrate, was added dropwise to each well for the chromogenic reaction.

Assay [2] addresses T2, recombinant ribosomal protein L7/L12 of Bacillus subtilis, tag fusion protein (Bacillus subtilis, UniProt P02394 1-123).
T2 sequence: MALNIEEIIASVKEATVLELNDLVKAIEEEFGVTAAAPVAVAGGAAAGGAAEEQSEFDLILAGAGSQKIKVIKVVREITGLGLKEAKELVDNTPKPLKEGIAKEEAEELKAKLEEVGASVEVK
The assay is described as follows: ELISA, recombinant L7/L12 (10 ng/mL) coated.
Text: as §1, §2

Assay [3] concerns the target recombinant ribosomal protein L7/L12 of Escherichia coli, tag fusion protein (Escherichia coli, UniProt P0A7K2 1-121). The assay is described as follows: ELISA, recombinant L7/L12 coated, antibody 10 ug/mL; +: A450 >=0.3.
Text: as §1, §2
The target of assay [4] is T3, ribosome protein L7/L12 of Pseudomonas aeruginosa, native, in bacterial lysate (Pseudomonas aeruginosa, UniProt Q9HWC8 1-122).
T3 construct: also called PA; P. aeruginosa lysate
T3 sequence: T1 sequence
The assay is described as follows: ELISA, bacterial lysate coated.
Text: (§3) The thus-produced Specific Antibodies A to C (antibodies of the present invention) and Generic Antibodies A and B were used to obtain data on the reactivity with plural genera of Enterobacteriaceae bacteria and bacteria other than Enterobacteriaceae (non-Enterobacteriaceae bacteria) by means of ELISA. […] The seven species of Enterobacteriaceae bacteria and four species of non-Enterobacteriaceae bacteria described above were purchased and cultured from ATCC, prepared at 1×e⁸ cfu/mL each, and suspended in PBS. Each bacterium was lysed by sonication, and debris was removed by filtration through a filter with a 0.45-μm mesh opening to obtain the bacterial lysate of each bacterium.
(§4) 50 μL of the above bacterial lysate was dropped into each well of a 96-well polystyrene plate for ELISA and solidified on the bottom of the plate. After washing each well three times with PBS-T (PBS with Tween 20), blocking treatment was performed with PBS containing 1% BSA (Bovine Serum Albumin). After blocking, the wells were washed three times with PBS-T, and 50 μL of 10 μg/mL solution of each of the Specific Antibodies A to C and Generic Antibodies A and B was dropped into each well for 1 hour for antigen-antibody reactions. After the reactions, the samples were washed three times with PBS-T, and then 0.5 μg/mL of HRP (Horse Radish Peroxidase) labeled secondary antibody (Goat Anti-mouse IgG: Goat Anti-mouse IgG), which is the enzyme for detection, was added dropwise. After the reaction, the wells were washed five times with PBS-T, and 100 μL of a mixture of tetramethylbenzidine (TMB) and hydrogen peroxide, the chromogenic substrate, was added dropwise to each well for the chromogenic reaction.

Assay [5] concerns the target T4, ribosome protein L7/L12 of Bacillus subtilis, native, in bacterial lysate (Bacillus subtilis, UniProt P02394 2-123).
T4 construct: also called BS; B. subtilis lysate
T4 sequence: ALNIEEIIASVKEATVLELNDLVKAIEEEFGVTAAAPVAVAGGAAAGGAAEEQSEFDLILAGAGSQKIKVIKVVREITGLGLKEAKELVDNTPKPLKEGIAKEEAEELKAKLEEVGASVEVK
Nature of the assay: lateral-flow sandwich kit (a) on lysate; capture Specific Antibody A, gold-labelled detection Generic Antibody A.

Assay [6] concerns the target T4, ribosome protein L7/L12 of Bacillus …. Nature of the assay: ELISA, bacterial lysate coated.
Text: as §3, §4

Results on five molecules are retold here after patent publication US20240069022A1 (ASAHI KASEI, published 2024).

Sequence of recombinant ribosomal protein L7/L12 of Escherichia coli, tag fusion protein (P0A7K2 whole entry, the tested form may be a part): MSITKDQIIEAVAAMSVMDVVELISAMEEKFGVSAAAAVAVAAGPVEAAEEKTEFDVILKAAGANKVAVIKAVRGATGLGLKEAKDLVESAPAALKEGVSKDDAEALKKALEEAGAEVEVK

B1: Specific Antibody A (EC50C1) (antibody, V domains shown)
VH: QVQLQQSGAELAKPGASVKMSCKASGYTFTSYWMNWVKQRPGQGLEWIGYINPNTGYTEYDQKFKDKATLTADKSSSTAYMQLSSLTSEDSAVYYCARYWAYFEYWGQGTTLTVSS
VL: DIKMTQSPSSMYASLGERVTITCKASQDINSYLSWFQQKPGKSPKTLIYRANRLVDGVPSRFSGSGSGQDYSLTISSLEYEDMGIYYCLQYDEFRTFGGGTKLEIK
On to B1, for which the binding result in assay [1] is “no binding (tested: Absorbance <0.3 at 10 ug/mL antibody)”; in assay [2] it was “no binding (tested: Absorbance <0.3 at 10 ug/mL antibody)”; in assay [3] it was “binds”; in assay [4], “no binding (tested: Absorbance <0.3 at 10 ug/mL antibody)”; in assay [5] it was “no binding (tested: Visually negative)”.

B2: Generic Antibody A (PA51B2) (antibody, V domains shown)
VH: QVQLQQPGSVLVRPGASVKLSCKPSGYTFTGSWMHWTKQRPGQGLEWIGEIHPYSGNTNYNEKFRVKATLTVDTSSSTTYVDLSSLTSDDSAVYYCASGDFDAGFTYWGQGTLVTVSA
VL: DIVLTQSPASLAVSLGRRATISCKASQSVDYDGDSYMNWYQQKPGQPPKLLIYVASNLESGIPARFSGSGSGTDFTLNIHPVEEEDAATYYCQQTNEDPFTFGAGTKLELK
With B2, in assay [3], the binding result was “binds”.

B3: Specific Antibody C (EC162A3) (antibody, V domains shown)
VH: QVQLQQSGTELAKPGASVQMSCKASGYTFTSYWMHWVKQRPGQGLEWIGYINPNTGYTEYNQQFKDKATLTADKSSSTAYMQLSSLTSEDSAVYYCANYFAWFGYWGQGTLVTVSA
VL: DIKMTQSPSSMYASLGERVTVTCKASQDIYSYLNWFQQKPGKSPKTLIYRANRLVDGVPSRFSGSGSGQEYSLTISSLEHEDMGIYYCLQHDQHPYTFGSGTKLEIK
On to B3, for which the binding result in assay [1] was “no binding (tested: Absorbance <0.3 at 10 ug/mL antibody)”; in assay [2], “no binding (tested: Absorbance <0.3 at 10 ug/mL antibody)”; in assay [3] it was “binds”; in assay [6] it was “no binding (tested: Absorbance <0.3 at 10 ug/mL antibody)”; in assay [4] it was “no binding (tested: Absorbance <0.3 at 10 ug/mL antibody)”.

B4: Specific Antibody B (EC149C3) (antibody, V domains shown)
VH: QVQLQQSGAELVKPGASVKLSCKASDYTFTNFYIYWVKQRPGQGLEWIGEINPSNGYTTFNVKFKSKATLTVDKSSSTAYMQLSSLTSEDSAVYYCTRNYGGSRCAYWGQGTLVTVSA
VL: DVLMTQTPLSLPVSLGDQASISCRSSQSIVHSNGNTYLEWYLQKPGQSPKLLIYKVSNRFSGVPDRFSGSGSGTDFTLKISRVEAEDLGVYYCFQGSHVPWTFGGGTKLEIK
As for B4, the binding result in assay [1], in assay [2], in assay [6] and in assay [4] was “no binding (tested: Absorbance <0.3 at 10 ug/mL antibody)” throughout.

B5: Generic Antibody B (CP141A190.1) (antibody, V domains shown)
VH: QVQLQQPGAELVKPGASVKLSCKTSGYNFTSNWIHWVKQRPGQGLEWIGEINPSNGRANYNEKFKNKATLTVDKSSSTAFMHLSSLTSEDSAVYFCSRGDFDEGFTYWGQGTLVTVSA
VL: QIVLTQSPAIMSASLGERVTMTCTASSNVNSDYLHWYQQKPGSSPRLWIYTTSNLASGVPTRFSGNGSGTSYSLTISSMEAEDAATYYCHQYHRSPRTFGGGTKLEIK
As to B5, the binding result in assay [3] was “binds”.
